In experiment [1] the test system is ⍺4β7 transfected 293T cells. Put plainly: Flow cytometry: staining of 293T cells co-transfected with ⍺4 and β7 expression vectors. In kind it is binding. The conditions noted are these: Fig 1C. An excerpt: The FRET/FLIM results described above indicate a direct interaction between CD4 and ⍺4β7. […] To this end we employed a fluorescently labelled soluble dodecameric CD4 Ig fusion protein, termed D1D2-Ig⍺tp, that includes the two N-terminal Ig-like domains of CD4 (D1D2, aa 1–180), followed by IgG1 CH2 and CH3 domains, followed by the 18 aa tail-piece domain of IgA (⍺tp). In this oligomer, 12 D1D2-Igs are arranged in a disulphide linked daisy-chain (Fig 1A). Primary CD4^+ T cells, some of which express ⍺4β7, were reacted with D1D2-Ig⍺tp and analyzed by flow-cytometry. A second oligomeric Ig fusion protein, MicA-Ig⍺tp, which includes the two N-terminal domains of MicA, was employed as a specificity control. […] MAdCAM-Ig was employed as a positive control. […] We conclude that an oligomeric soluble CD4 that includes only its two N-terminal domains can bind to ⍺4β7 in a specific way.
Fig 1 Binding of soluble CD4 to ⍺4β7 on CD4^+ T cells. (A) Schematic of D1D2-Ig⍺tp. […] X-axis indicates geometric mean fluorescence intensity (gMFI). […]
(§1) Cells were stained with fluoresceine conjugated mAbs or recombinant proteins using standard procedures preceded by Fc receptor blocking with human IgG. […] Data were acquired using a FACSCanto II (BD Biosciences) and analyzed with FlowJo software (BD Biosciences). […]
(In general: Flow cytometry measures light scatter and fluorescence of single cells or particles in a stream.)

The test system of experiment [2] is ⍺4β7 on primary CD8^+ T cells. The experiment in a line: Flow cytometry: FAM-conjugated pCD4^165-178 binding to RA-treated primary CD8^+ T cells. More on the design: species or system human. The conditions noted are these: FAM-Ttds-labelled peptide 1.25 μg/200,000 cells in 100 μl; MnCl2; 3 independent experiments. An excerpt:
To further investigate the interaction between pCD4^165-178 and ⍺4β7 we attached a fluorescein dye to its amino terminus via a trioxatridecan-succinamic acid (Ttds) linker (Fig 5A). A scrambled pCD4^165-178 was employed as a control. […] FIB504 and vedolizumab inhibited binding by ~50%. This inhibition pattern resembles the one we obtained when inhibiting D1D2-Ig⍺tp with the same antagonists (Fig 3). We conclude that the CD4 D2 G β-strand binds directly to the headpiece region of ⍺4β7 in a cation dependent manner. Support for this conclusion, in the form of site directed mutagenesis within the D2 G β-strand is provided below.
Fig 5 Direct binding of pCD4^165-178 to ⍺4β7 on primary T cells. (A) Sequence of FAM -conjugated pCD4^165-178 and a scrambled derivative (FAM-scr pCD4^165-178). (B) Flow-cytometry derived histogram of pCD4^165-178 binding to RA -cultured CD8^+ T cells. pCD4^165-178 in the presence (green), or absence of Mn^++(black). Unstained cells are shown (grey). (C) Binding of pCD4^165-178 and its scrambled derivative to CD8^+ T cells in the presence of MnCl2 as in panel B, and in the presence of ⍺4 and ⍺4β7 antagonists, as indicated. Y-axis indicates % cells bound. Error bars represent standard error from 3 independent experiments.
Cells were stained with fluoresceine conjugated mAbs or recombinant proteins using standard procedures preceded by Fc receptor blocking with human IgG. Buffers used were 10 mM HEPES 150 mM NaCl (HBS Buffer) with 100 μM CaCl2. 1 mM MnCl2 was also included, unless otherwise specified. Buffer without divalent cations included 0.1 mM EDTA. Unlabeled mAb or protein inhibitors were preincubated with cells or proteins at a 5X molar excess for 15 min on ice. FAM labeled peptides were used at 1.25 μg/ 200,000 cells in a 100 μl volume. Data were acquired using a FACSCanto II (BD Biosciences) and analyzed with FlowJo software (BD Biosciences). Plotted MFI values represent absolute values.

For experiment [3], the system named is ⍺4β7 on RPMI8866 cells. The experiment in a line: Flow cytometry: cross-inhibition of MAdCAM-Ig, VCAM-Ig and D1D2-Ig⍺tp binding to RPMI8866 cells. More on the design: species or system human. Particulars: increasing concentrations of unlabeled inhibitor, Fig 2C, 2D. As for the experimental part:
Cis interactions between various integrins and leukocyte receptors are known to regulate immune cell functions. To determine whether CD4 inhibits MAdCAM-1 or VCAM-1 binding to ⍺4β7 we preincubated RPMI8866 cells with labelled MAdCAM-Ig or VCAM-Ig in the presence of increasing concentrations of unlabeled D1D2-Ig⍺tp. […] This implies that MAdCAM-1 and VCAM-1, acting in trans, may interfere with CD4-⍺4β7 interactions. What remains unknown is whether interactions between ⍺4β7 and CD4 impact CD4 migration into the TCR and subsequent interactions with MHC II (Fig 2E).
Fig 2 Cross-inhibition of MAdCAM-Ig, VCAM-Ig and D1D2-Ig⍺tp binding to ⍺4β7. Flow cytometric analysis of (A) PE -conjugated MAdCAM-Ig or (B) PE -conjugated VCAM-Ig binding to RPMI8866 cells pre-incubated with increasing concentrations of unlabeled D1D2-Igαtp. Cell preincubated with increasing concentrations of (C) unlabeled MAdCAM-Ig or (D) VCAM-Ig followed by PE -conjugated D1D2-Ig⍺tp. Y-axis indicates gMFI. Dashed line indicates gMFI in the absence of any inhibitor.
Cells were stained with fluoresceine conjugated mAbs or recombinant proteins using standard procedures preceded by Fc receptor blocking with human IgG. Buffers used were 10 mM HEPES 150 mM NaCl (HBS Buffer) with 100 μM CaCl2. […] Data were acquired using a FACSCanto II (BD Biosciences) and analyzed with FlowJo software (BD Biosciences). […]

Experiment [4] concerns ⍺4β7 on RPMI8866 cells. Put plainly: Flow cytometry: ligand staining of ⍺4β7-expressing cells in buffers with different divalent cations. The conditions noted are these: absence of divalent cations (0.1 mM EDTA). In kind it is binding, human.
Source text: Fig 1 Binding of soluble CD4 to ⍺4β7 on CD4^+ T cells. (A) Schematic of D1D2-Ig⍺tp. (B) Flow-cytometry histogram of PE-conjugated D1D2-Ig⍺tp staining of CD4^+ T cells alone (blue) or in the presence of either the anti ⍺4 mAb 2B4 (green) or an irrelevant mAb (black-dashed). Cells stained with PE-conjugated MicA-Ig⍺tp (red), along with unstained cells (grey) are included. X-axis indicates geometric mean fluorescence intensity (gMFI). (C) 293T cells untransfected or co-transfected with ⍺4 and β7 expression vectors stained with either PE-D1D2-Ig⍺tp or PE-MAdCAM-Ig in the absence or presence of the ⍺4 antagonist FG. Y-axis indicates gMFI. (D) CD4^+ T cells stained with anti CD45RO (x-axis) anti β7 (y-axis) (left), or with anti CD45RO (x-axis) and D1D2-Ig⍺tp (y-axis) (right). % cells in each quadrant, as indicated. (E) CD4^+ T cells stained as in B, with lower MW forms of oligomerized D1D2-Ig⍺tp. Left Y-axis indicates gMFI (bars), right Y-axis indicates relative MW (kDa) (•). […]
as §1

A further experiment relates to ⍺4β7. Put plainly: SPR binding kinetics: recombinant ⍺4β7 passed over ligand-coated surfaces (S1 Table). The conditions noted are these: SPR Biacore 3000, ligand immobilized, ⍺4β7 analyte, HBS pH 7.4, 1 mM MnCl2, 25°C. The protocol: To measure the specific affinity of CD4–⍺4β7 interactions we developed a surface plasmon resonance (SPR) -based assay in which recombinant ⍺4β7 was passed over a surface coated with a 23 kD D1D2 protein (aa 1–183). For comparison we prepared surfaces with recombinant MAdCAM-Ig, VCAM-Ig, monomeric gp120, and a SOSIP env trimer (S1 Table). Assays were carried out in the presence of MnCl2 to present ⍺4β7 in an active conformation. […] This rate of dissociation was similar to that of both MAdCAM-Ig and VCAM-Ig with ⍺4β7 and is indicative of a relatively high-affinity interaction.
Experiments were performed using a Biacore 3000 instrument (Cytiva Life Sciences) using CM4 or CM5 sensor chips. The data were evaluated using BIAevaluation 4.1.1 software (Cytiva Life Sciences). The chip surface was activated by injecting 35 μl of a 1:1 mixture of 0.05 M N-hydroxysuccinimide and 0.2 M N-ethyl-N-(dimethylaminopropyl) carbodiimide at 5 μl/min. NeutrAvidin, HIV gp120, sCD4 (D1D2) or Hu-MAdCAM-Ig (R&D Systems) at concentrations of 5 μg/ml in 10mM NaOAc, pH 4.5, were immobilized to 250–750 resonance units (RU). After the proteins were immobilized to the desired densities, unreacted sites were blocked with 35 μl of 1 M Tris-HCl (pH 8.0). Biotinylated cyclic V2 peptides (1 μg/ml in 20 mM Tris-HCl, pH 8.0) were bound to the NeutrAvidin surfaces to densities of approximately 250–300 RU. One surface was activated and blocked without ligand as a control surface for non-specific binding. Signal from the control surface was subsequently subtracted. Running buffer was HBS (pH 7.4), 1 mM MnCl2, 0.005% Tween- 20, 0.05% soluble carboxymethyl-dextran. Binding experiments were carried out at a flow rate of 25 μl/min at 25°C. After a 2 min injection, the surface was washed for an additional 2 min in running buffer allowing dissociation of the bound ligand from the surface. The surfaces were regenerated by multiple injections of 4.5 M MgCl2 at a flow rate of 100 μl/min. Inhibition of ⍺4β7 binding by linear V2-loop and CD4 derived peptides was carried out by pre-incubating ⍺4β7 with the peptides in running buffer at the indicated concentrations for 2 hours at room temperature prior to passing them over the prepared surfaces as described above. Cross-inhibition experiments were performed by passing either buffer or the listed analytes over a surface to which sCD4 (D1D2) had been immobilized, followed by a secondary sequential injection of ⍺4β7. The ability of each analyte to inhibit either itself or ⍺4β7 was determined by comparing the binding of ⍺4β7 in the absence or presence of the listed pre-bound analytes as previously described. Illustration of the dynamic range of range of linear peptide inhibition assays is provided in S4 Fig.
(SPR reads the build-up and loss of mass on a sensor chip optically.)

For `CCOCc1cc(OC)c(-c2ccc(C[C@H](NC(=O)c3c(F)cccc3F)C(=O)O)cc2)c(OC)c1` [FG, firategrast], the “inhibition of D1D2-Ig⍺tp and MAdCAM-Ig binding to ⍺4β7 transfected 293T cells (in words)” value in experiment [1] is listed as “inhibited”. Also, the “reduction of pCD4^165-178 binding to CD8^+ T cells” value in experiment [2] is given as ~ 80%.

B1: VCAM-Ig: recombinant VCAM-1 Ig fusion, R&D Systems (protein)
chain: FKIETTPESRYLAQIGDSVSLTCSTTGCESPFFSWRTQIDSPLNGKVTNEGTTSTLTMNPVSFGNEHSYLCTATCESRKLEKGIQVEIYSFPKDPEIHLSGPLEAGKPITVKCSVADVYPFDRLEIDLLKGDHLMKSQEFLEDADRKSLETKSLEVTFTPVIEDIGKVLVCRAKLHIDEMDSVPTVRQAVKELQVYISPKNTVISVNPSTKLQEGGSVTMTCSSEGLPAPEIFWSKKLDNGNLQHLSGNATLTLIAMRMEDSGIYVCEGVNLIGKNRKEVELIVQEKPFTVEISPGPRIAAQIGDSVMLTCSVMGCESPSFSWRTQIDSPLSGKVRSEGTNSTLTLSPVSFENEHSYLCTVTCGHKKLEKGIQVELYSFPRDPEIEMSGGLVNGSSVTVSCKVPSVYPLDRLEIELLKGETILENIEFLEDTDMKSLENKSLEMTFIPTIEDTGKALVCQAKLHIDDMEFEPKQRQSTQTLYVNVAPRDTTVLVSPSSILEEGSSVNMTCLSQGFPAPKILWSRQLPNGELQPLSENATLTLISTKMEDSGVYLCEGINQAGRSRKEVELIIQVTPKDIKLTAFPSESVKEGDTVIISCTCGNVPETWIILKKKAETGDTVLKSIDGAYTIRKAQLKDAGVYECESKNKVGSQLRSLTLDVQGRENNKDYFSPE
modifications: left off: Ig (Fc, from the name VCAM-Ig), end not stated, kept
notes: recombinant VCAM-1 Ig fusion, R&D Systems
As for B1, the “inhibition of PE-conjugated D1D2-Ig⍺tp binding to ⍺4β7 (in words)” value in the experiment with ⍺4β7 on RPMI8866 cells [3] is listed as “inhibited D1D2-Ig⍺tp binding to ⍺4β7 in a dose dependent manner”. For the same molecule, in the experiment with ⍺4β7 on RPMI8866 cells [4], the “binding to ⍺4β7 (in words)” value was “failed to bind”. For the same molecule, in the experiment on ⍺4β7, the KA worked out at 2.76e+07 M⁻¹, the ka came out at 38700 M⁻¹ s⁻¹ and the kd came to 0.00141 s⁻¹.

The values above are taken from publication PMC10732398 (PLOS Pathogens, 2023).
